Assay results from the supplement of paper PMC10065799, “High-throughput profiling of sequence recognition by tyrosine kinases and SH2 domains using bacterial peptide display” (eLife, 2023).

Tests used:
AncSZ = assay: phosphorylation enrichment, bacterial display (enrichment ratio); higher = better substrate or ligand; peptides without Tyr show the background
EPHB1 = EPHB1 (UniProt P54762); assay: as above
EPHB2 = EPHB2 (UniProt P29323); assay: as above
FGFR1 = FGFR1 (UniProt P11362); assay: as above
Chain of FGFR1 (P11362 whole entry, looked up): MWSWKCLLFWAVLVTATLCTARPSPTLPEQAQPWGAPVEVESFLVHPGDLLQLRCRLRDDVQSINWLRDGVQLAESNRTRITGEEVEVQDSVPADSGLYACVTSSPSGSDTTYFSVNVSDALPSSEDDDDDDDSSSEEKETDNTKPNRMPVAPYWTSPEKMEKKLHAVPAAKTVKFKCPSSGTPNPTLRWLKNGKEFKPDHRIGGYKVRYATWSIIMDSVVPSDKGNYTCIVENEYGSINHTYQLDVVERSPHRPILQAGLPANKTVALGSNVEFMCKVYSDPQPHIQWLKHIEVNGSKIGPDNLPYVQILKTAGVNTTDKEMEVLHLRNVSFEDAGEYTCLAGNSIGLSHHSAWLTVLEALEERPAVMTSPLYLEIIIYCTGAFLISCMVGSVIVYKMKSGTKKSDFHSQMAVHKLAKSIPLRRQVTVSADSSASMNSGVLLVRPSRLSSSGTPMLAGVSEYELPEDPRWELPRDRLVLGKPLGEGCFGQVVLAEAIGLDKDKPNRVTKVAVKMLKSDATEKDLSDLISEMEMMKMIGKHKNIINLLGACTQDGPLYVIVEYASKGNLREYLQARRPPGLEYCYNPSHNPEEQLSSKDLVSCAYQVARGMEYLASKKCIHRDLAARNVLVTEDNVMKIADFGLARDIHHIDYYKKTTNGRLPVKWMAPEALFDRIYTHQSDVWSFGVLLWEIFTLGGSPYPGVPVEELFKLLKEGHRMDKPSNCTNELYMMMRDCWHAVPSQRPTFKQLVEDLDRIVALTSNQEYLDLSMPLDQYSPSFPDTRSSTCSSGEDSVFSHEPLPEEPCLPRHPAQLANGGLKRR

FGFR3 = FGFR3 (UniProt P22607); assay: as above
Chain of FGFR3 (P22607 whole entry, looked up): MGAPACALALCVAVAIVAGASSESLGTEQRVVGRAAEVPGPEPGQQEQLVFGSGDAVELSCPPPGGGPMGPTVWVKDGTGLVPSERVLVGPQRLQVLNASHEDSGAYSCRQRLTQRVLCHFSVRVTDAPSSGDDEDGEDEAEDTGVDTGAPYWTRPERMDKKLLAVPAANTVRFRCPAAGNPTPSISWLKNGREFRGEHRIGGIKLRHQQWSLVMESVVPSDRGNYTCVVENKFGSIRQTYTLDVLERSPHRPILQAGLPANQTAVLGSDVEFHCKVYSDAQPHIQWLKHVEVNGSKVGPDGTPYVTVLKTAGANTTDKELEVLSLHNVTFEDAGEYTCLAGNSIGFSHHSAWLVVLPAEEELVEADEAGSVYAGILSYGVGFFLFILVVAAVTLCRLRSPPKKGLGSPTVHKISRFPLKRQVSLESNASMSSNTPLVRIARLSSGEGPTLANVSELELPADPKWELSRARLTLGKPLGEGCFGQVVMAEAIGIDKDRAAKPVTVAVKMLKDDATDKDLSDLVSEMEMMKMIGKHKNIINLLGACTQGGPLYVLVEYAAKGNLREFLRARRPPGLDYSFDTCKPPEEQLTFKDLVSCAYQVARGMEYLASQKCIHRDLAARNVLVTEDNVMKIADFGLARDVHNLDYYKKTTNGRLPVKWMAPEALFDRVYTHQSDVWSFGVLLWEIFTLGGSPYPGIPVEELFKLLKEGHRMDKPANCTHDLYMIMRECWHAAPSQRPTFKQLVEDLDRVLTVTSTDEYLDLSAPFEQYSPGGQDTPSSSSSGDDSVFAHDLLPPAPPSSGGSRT

Fer (mouse) = assay: as above
Fes = Fes (UniProt P07332); assay: as above
Chain of Fes (P07332 whole entry, looked up): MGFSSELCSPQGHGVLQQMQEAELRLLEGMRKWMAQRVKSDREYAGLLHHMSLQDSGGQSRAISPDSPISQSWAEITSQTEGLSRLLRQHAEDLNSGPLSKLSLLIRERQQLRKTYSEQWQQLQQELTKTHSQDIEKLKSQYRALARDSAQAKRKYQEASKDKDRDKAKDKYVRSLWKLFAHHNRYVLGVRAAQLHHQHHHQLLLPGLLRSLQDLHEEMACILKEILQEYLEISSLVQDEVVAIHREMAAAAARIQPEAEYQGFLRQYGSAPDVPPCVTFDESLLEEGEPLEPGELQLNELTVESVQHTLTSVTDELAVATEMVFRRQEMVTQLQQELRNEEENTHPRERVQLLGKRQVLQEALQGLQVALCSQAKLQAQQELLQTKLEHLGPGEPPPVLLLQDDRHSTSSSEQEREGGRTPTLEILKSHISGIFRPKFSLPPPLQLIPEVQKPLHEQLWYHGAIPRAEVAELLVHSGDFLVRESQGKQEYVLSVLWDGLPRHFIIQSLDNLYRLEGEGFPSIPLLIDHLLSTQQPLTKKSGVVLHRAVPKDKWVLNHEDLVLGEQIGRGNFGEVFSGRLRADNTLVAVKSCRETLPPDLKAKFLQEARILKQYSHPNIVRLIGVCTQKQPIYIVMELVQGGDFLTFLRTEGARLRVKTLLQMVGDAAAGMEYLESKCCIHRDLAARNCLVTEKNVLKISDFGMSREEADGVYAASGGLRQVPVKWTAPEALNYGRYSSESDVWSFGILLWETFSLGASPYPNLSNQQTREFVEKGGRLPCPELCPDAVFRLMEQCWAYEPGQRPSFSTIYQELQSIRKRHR

Fyn = Fyn (UniProt P06241); assay: as above
Chain of Fyn (P06241 whole entry, looked up): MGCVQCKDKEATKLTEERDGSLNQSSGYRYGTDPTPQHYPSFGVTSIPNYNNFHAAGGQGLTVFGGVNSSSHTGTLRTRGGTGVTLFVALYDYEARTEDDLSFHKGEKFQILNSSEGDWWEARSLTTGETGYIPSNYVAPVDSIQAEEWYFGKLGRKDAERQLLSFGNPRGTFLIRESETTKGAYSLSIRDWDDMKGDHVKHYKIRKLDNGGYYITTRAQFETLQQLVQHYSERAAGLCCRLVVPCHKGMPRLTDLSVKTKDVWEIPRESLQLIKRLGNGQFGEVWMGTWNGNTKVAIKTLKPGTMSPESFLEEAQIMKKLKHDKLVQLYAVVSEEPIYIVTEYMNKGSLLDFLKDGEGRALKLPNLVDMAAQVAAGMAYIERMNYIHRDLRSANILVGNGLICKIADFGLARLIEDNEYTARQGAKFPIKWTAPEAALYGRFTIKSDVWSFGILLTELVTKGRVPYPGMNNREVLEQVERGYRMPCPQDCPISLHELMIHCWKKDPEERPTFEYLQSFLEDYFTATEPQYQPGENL

Hck = Hck (UniProt P08631); assay: as above
Chain of Hck (P08631 whole entry, looked up): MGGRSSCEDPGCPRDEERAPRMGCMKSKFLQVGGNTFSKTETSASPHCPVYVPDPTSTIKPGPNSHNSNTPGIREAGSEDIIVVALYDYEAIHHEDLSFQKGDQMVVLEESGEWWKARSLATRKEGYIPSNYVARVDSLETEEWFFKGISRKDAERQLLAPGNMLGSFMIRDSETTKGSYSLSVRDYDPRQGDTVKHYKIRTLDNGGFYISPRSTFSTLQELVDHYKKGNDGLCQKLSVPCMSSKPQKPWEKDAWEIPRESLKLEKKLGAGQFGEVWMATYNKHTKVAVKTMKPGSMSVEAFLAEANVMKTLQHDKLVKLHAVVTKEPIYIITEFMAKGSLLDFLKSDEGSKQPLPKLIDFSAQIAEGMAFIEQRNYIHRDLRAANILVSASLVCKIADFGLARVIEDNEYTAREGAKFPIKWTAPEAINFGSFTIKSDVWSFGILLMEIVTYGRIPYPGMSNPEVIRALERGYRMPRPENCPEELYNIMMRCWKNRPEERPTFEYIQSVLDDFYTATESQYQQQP

Jak2 = Jak2 (UniProt O60674); assay: as above
MERTK = MERTK (UniProt Q12866); assay: as above
c-Abl (mouse) = assay: as above
c-Src = assay: as above
Grb2 SH2 = Grb2 SH2 (UniProt P62993); assay: SH2 binding enrichment of the phosphorylated peptide, bacterial display (enrichment ratio); higher = better substrate or ligand; peptides without Tyr show the background
Chain of Grb2 SH2 (P62993 whole entry, looked up): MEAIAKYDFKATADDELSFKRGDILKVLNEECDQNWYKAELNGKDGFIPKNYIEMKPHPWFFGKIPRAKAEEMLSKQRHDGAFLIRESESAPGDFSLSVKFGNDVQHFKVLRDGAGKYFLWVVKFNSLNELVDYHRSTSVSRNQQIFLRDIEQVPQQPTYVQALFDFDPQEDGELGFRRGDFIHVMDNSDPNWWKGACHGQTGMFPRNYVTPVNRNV

SHP2-C SH2 = assay: as above
c-Src SH2 = assay: as above
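Throughout, for SH2 binding enrichment of the phosphorylated peptide, bacterial display: peptide library displayed on the E. coli surface as eCPX fusions, selected cells deep-sequenced, score is each peptide's frequency after selection divided by its frequency in the input.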
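Throughout, for phosphorylation enrichment, bacterial display: 11-residue human phosphosite peptides and single-mutation variants displayed on the E. coli surface, counted by deep sequencing, each peptide's frequency after selection divided by its frequency in the unselected input library; frequency after pTyr selection over input frequency; kinase dosed for 20-30% of maximal phosphorylation in three min.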

Chain of EPHB2 (P29323 whole entry, looked up): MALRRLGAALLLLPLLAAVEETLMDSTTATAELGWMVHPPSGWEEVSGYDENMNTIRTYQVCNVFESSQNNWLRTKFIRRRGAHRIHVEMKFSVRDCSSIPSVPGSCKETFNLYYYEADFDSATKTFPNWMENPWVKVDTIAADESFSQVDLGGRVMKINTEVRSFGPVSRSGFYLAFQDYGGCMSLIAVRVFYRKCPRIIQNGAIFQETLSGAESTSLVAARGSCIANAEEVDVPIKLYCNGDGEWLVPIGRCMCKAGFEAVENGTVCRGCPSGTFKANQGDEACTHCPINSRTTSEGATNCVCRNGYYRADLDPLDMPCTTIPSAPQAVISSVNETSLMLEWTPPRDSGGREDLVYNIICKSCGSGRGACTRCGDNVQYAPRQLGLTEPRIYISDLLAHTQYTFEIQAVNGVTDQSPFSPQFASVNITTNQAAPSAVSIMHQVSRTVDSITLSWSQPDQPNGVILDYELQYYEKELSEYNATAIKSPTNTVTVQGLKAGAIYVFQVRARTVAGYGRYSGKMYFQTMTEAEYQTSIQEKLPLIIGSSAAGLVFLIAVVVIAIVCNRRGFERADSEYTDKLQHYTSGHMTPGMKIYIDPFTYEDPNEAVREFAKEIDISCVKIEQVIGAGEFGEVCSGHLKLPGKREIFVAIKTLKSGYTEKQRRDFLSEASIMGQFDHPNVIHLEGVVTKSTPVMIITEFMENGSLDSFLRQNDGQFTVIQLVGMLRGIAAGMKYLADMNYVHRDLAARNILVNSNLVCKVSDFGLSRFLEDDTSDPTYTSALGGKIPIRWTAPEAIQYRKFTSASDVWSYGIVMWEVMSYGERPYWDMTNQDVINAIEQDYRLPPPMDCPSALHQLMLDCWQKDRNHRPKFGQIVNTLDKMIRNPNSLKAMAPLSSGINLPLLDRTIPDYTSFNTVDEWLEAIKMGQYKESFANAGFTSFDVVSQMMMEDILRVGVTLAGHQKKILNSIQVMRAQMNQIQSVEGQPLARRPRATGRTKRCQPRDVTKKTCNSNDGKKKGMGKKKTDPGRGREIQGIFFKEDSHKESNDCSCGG

| Sequence | phosphorylation enrichment (AncSZ) | phosphorylation enrichment (EPHB1) | phosphorylation enrichment (EPHB2) | phosphorylation enrichment (FGFR1) | phosphorylation enrichment (FGFR3) | phosphorylation enrichment (Fer (mouse)) | phosphorylation enrichment (Fes) | phosphorylation enrichment (Fyn) | phosphorylation enrichment (Hck) | phosphorylation enrichment (Jak2) | phosphorylation enrichment (MERTK) | phosphorylation enrichment (c-Abl (mouse)) | phosphorylation enrichment (c-Src) | SH2 binding enrichment (Grb2 SH2) | SH2 binding enrichment (SHP2-C SH2) | SH2 binding enrichment (c-Src SH2) |
| --- | --- | --- | --- | --- | --- | --- | --- | --- | --- | --- | --- | --- | --- | --- | --- | --- |
| AYQGKYTPSGQ [ALDOA_Y343_C339Y] | 0.383 | 0.388 | 0.299 | 0.316 | 0.375 | 0.345 | 0.441 | 0.262 | 0.309 | 0.545 | 0.337 | 0.384 | 0.35 | 0.939 | 0.639 | 0.622 |
| CEHRGHLYLAI [TEK_Y897_Y897H] | 1.07 | 0.665 | 0.441 | 0.646 | 0.722 | 0.537 | 1.28 | 0.908 | 0.417 | 0.833 | 0.374 | 0.676 | 0.377 | 1.16 | 1.27 | 1.21 |
| CFCSWYRGWAP [TIMP3_Y195_G190C_YF] | 1.28 | 0.859 | 0.707 | 1.07 | 1.03 | 4.11 | 1.44 | 0.647 | 0.887 | 1.25 | 0.556 | 0.933 | 4.5 | 1.17 | 1.24 | 1.09 |
| CGTPDYIAREI [PRKCG_Y521_P524R] | 1.26 | 0.724 | 0.622 | 0.633 | 0.866 | 0.604 | 1.13 | 0.53 | 0.631 | 1.06 | 0.445 | 0.849 | 0.443 | 0.793 | 0.631 | 0.452 |
| CGTPEYLAPEI [PRKACA_Y205] | 2.65 | 0.893 | 0.757 | 0.718 | 1.06 | 0.679 | 1.57 | 0.531 | 0.633 | 1.51 | 0.463 | 2.42 | 0.535 | 0.87 | 0.586 | 0.421 |
| CHKCTYKVTGL | 0.622 | 0.444 | 0.462 | 0.488 | 0.693 | 0.419 | 0.682 | 0.49 | 0.472 | 0.556 | 0.453 | 0.523 | 0.504 | 1.46 | 1.46 | 1.34 |
| CKSIHYDLVFL [COL22A1_Y37_V35I] | 1.49 | 0.751 | 0.755 | 0.651 | 0.895 | 8.93 | 1.55 | 0.574 | 0.686 | 1.36 | 1.51 | 0.936 | 0.562 | 0.736 | 0.573 | 1.06 |
| CPEASYNRSPI [PTAR1_Y42_R41S] | 0.82 | 0.602 | 0.565 | 0.58 | 0.701 | 0.825 | 1.09 | 0.489 | 0.521 | 0.882 | 0.585 | 0.781 | 0.528 | 0.763 | 0.588 | 0.471 |
| CPPEVYAIMRG [NTRK1_Y757] | 1.24 | 0.976 | 0.564 | 0.455 | 0.765 | 0.51 | 1.12 | 1.25 | 2 | 0.87 | 1.16 | 0.695 | 2.39 | 1.3 | 0.9 | 0.814 |
| CQGSLYPSNHD [LRIG1_Y996] | 0.879 | 0.582 | 0.531 | 0.531 | 0.551 | 0.501 | 0.979 | 0.535 | 0.611 | 1.03 | 0.391 | 0.567 | 0.571 | 0.781 | 0.568 | 0.518 |
| CQNRFYDAKVR [FKBP6_Y188_R183C] | 0.794 | 0.445 | 0.485 | 0.495 | 0.669 | 0.426 | 0.897 | 0.373 | 0.475 | 0.869 | 0.477 | 0.684 | 0.416 | 0.941 | 0.914 | 0.684 |
| CRWKRYQRSHD [GDPD5_Y30] | 0.675 | 0.458 | 0.516 | 0.481 | 0.508 | 0.469 | 0.563 | 0.472 | 0.527 | 0.573 | 0.487 | 0.482 | 0.579 | 0.679 | 0.604 | 0.483 |
| CTAIHYNYMCN [TP53_Y234_T231A] | 0.707 | 0.628 | 0.506 | 0.479 | 0.581 | 0.401 | 0.727 | 0.386 | 0.429 | 0.569 | 0.398 | 0.48 | 0.441 | 1.3 | 2.87 | 6.38 |
| CTTIDYNFMCN [TP53_Y234_H233D_YF] | 1.27 | 0.474 | 0.651 | 0.882 | 0.911 | 0.597 | 1.27 | 0.527 | 0.528 | 1.21 | 0.529 | 1.04 | 0.874 | 0.874 | 0.661 | 0.931 |
| CTTIHDNFMCN [TP53_Y234_Y234D_YF] | 0.841 | 0.544 | 0.512 | 0.516 | 0.592 | 0.465 | 0.898 | 0.441 | 0.54 | 0.849 | 0.37 | 0.631 | 0.436 | 0.949 | 0.605 | 0.895 |
| CTTIHYNYMCS [TP53_Y234_N239S] | 0.848 | 0.992 | 0.62 | 0.647 | 0.639 | 0.713 | 0.835 | 0.44 | 0.531 | 0.636 | 0.545 | 0.715 | 0.538 | 1.43 | 2.75 | 4.92 |
| CTTIHYNYMCY [TP53_Y234_N239Y] | 0.946 | 5.43 | 3.42 | 3.76 | 1.95 | 1.25 | 1 | 1.15 | 0.647 | 0.957 | 0.804 | 0.78 | 2.17 | 1.65 | 3.28 | 3.88 |
